Assay results from paper PMC9929448.

Experiments:
[1] = biological target: Noggin (Homo sapiens) (UniProt Q13253); assay: SPR; conditions: cited from earlier work
[2] = biological target: Noggin (residues 28-232) (human (from the UniProt entry Q13253)) (UniProt Q13253); assay: BLI; biotinylated Noggin (4 ug/mL) immobilised on streptavidin-coated biosensors, BMP-2 1 to 22.8 nM in solution; 30 °C; 50 mM sodium citrate pH 6.8, 150 mM NaCl, 1 mM magnesium acetate, 0.02% CHAPS; 1:1 interaction model; three repetitions
[3] = biological target: BMP-2 N102D mutant, mature form (human); assay: SDS-PAGE under reducing and nonreducing conditions; purified, refolded protein on 4 to 20% SDS-PAGE, Coomassie blue; covalent (disulphide) dimer
[4] = biological target: T1, Bone morphogenetic protein 2 (BMP-2), wild type, mature form (human); assay: as above
T1 sequence (P12643 whole entry, looked up): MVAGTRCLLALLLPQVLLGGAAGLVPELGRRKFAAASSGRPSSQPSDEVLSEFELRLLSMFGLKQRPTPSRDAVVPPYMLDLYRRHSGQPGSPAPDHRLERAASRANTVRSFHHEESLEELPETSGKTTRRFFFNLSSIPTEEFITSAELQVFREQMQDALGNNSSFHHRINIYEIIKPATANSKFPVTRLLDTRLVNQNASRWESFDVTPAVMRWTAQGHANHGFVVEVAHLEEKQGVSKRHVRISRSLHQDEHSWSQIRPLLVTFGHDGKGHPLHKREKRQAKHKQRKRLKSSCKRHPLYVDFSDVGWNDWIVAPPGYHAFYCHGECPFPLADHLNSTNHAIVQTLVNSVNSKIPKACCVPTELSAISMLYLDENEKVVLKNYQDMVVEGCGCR

Chain of Noggin (residues 28-232) (human (Q13253 other isoform, or with tags, fused parts or gaps): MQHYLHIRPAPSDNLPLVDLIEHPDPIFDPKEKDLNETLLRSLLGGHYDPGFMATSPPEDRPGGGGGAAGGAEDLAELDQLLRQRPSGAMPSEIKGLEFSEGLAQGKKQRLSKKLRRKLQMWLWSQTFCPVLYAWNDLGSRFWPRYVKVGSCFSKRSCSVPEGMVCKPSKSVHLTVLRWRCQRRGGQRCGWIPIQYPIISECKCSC
Chain of Noggin (Homo sapiens) (Q13253 28-232): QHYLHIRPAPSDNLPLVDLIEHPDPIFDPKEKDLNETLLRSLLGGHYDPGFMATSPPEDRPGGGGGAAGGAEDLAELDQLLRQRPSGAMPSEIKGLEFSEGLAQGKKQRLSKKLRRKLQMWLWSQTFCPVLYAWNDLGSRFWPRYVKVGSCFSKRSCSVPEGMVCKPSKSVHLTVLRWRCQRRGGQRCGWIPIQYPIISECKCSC

Substance	Kd [1]	Kd [2]	koff [2]	kon [2]	stoichiometry N [3]	stoichiometry N [2]	stoichiometry N [4]
BMP-2 (from UniProt P12643)	0.6 nM	–	–	–	–	–	–
BMP-2 N102D mutant, mature form (ligand)	–	0.3 nM	0.0007 s⁻¹	2.3e+06 M⁻¹ s⁻¹	2	–	–
Bone morphogenetic protein 2 (BMP-2), wild type, mature form (ligand)	–	0.36 nM	0.00042 s⁻¹	1.2e+06 M⁻¹ s⁻¹	–	1	2
